Publication PMC9834408, “The SPOC domain is a phosphoserine binding module that bridges transcription machinery with co- and post-transcriptional regulators” (Nature Communications, 2023)

Biological target: 2×S2P CTD diheptapeptide
Test: fluorescence polarisation; fluorescence anisotropy; 90 nM labelled peptide (Atto-488 on CTD peptides, FAM on NCoR and FMR1 peptides) titrated with increasing concentrations of SPOC domain; 20 °C; 25 mM Tris-Cl pH 7.4, 25 mM NaCl, 1 mM DTT; three independent dilution series

Kd	Binder
8.4 µM	PHF3 SPOC R1248A (domain or fragment) STFLARLNFIWKGFINMPSVAKFVTKAYPVSGSPEYLTEDLPDSIQVGGAISPQTVWDYVEKIKASGTKEICVVRFTPVTEEDQISYTLLFAYFSSRKRYGVAANNMKQVKDMYLIPLGATDKIPHPLVPFDGPGLELHRPNLLLGLIIRQKLKRQHS
22.4 µM	DIDO SPOC R1096A (domain or fragment) TLFLSRLSTIWKGFINMQSVAKFVTKAYPVSGCFDYLSEDLPDTIHIGGAIAPKTVWDYVGKLKSSVSKELCLIRFHPATEEEEVAYISLYSYFSSRGRFGVVANNNRHVKDLYLIPLSAQDPVPSKLLPFEGPGLESPRPNIILGLVICQKIKRPANS
